Assay results published in patent publication US20210130436A1 (published 2021).

Assays:
human CD28 [1] = target: human CD28 (human, UniProt P10747 19-220); assay: flow cytometry, Jurkat cells (CD28)
human CTLA-4 [2] = target: T1, human CTLA-4 (human, UniProt P16410 36-223); assay: flow cytometry, CHO cells stably expressing CTLA4
T1 construct: also called huCTLA4

[3] = target: T2, human CTLA4 expressed on CHO cells (human, UniProt P16410 36-223); assay: flow cytometry, CHO cells stably expressing CTLA4, Fc fusion at 33.3 nM
T2 construct: whole, on cells; Target on CHO cells stably expressing CTLA4; also called huCTLA4
T2 sequence (P16410 36-223): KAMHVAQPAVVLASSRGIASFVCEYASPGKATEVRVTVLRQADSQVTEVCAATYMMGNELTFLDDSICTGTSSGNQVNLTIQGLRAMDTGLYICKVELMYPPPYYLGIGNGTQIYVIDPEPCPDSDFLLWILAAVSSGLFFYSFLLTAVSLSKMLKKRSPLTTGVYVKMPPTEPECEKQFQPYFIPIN

[4] = target: T3, human PD-L1 expressed on CHO cells (human, UniProt Q9NZQ7 19-290); assay: flow cytometry, CHO cells stably expressing PD-L1, Fc fusion at 33.3 nM
T3 construct: whole, on cells; Target on CHO cells stably expressing PD-L1; also called huPD-L1
T3 sequence (Q9NZQ7 19-290): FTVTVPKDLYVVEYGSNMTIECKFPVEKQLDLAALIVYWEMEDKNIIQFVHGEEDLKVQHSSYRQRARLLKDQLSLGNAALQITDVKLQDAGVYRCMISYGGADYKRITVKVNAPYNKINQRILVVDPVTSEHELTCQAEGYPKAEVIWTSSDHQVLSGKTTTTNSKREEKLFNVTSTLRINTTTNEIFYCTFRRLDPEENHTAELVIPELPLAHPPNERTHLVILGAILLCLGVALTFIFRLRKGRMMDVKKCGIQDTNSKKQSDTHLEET

human PD-L1 [5] = target: T4, human PD-L1 (human, UniProt Q9NZQ7 19-290); assay: flow cytometry, CHO cells stably expressing huPD-L1, 33.3 nM Fc fusion, PE anti-human Fc
T4 construct: whole, on cells; CHO cells stably expressing huPD-L1; also called huPD-L1

human CTLA-4 [6] = target: T5, human CTLA-4 (human, UniProt P16410 36-223); assay: flow cytometry, CHO cells stably expressing huCTLA-4, 33.3 nM Fc fusion, PE anti-human Fc
T5 construct: whole, on cells; CHO cells stably expressing huCTLA4; also called huCTLA4

human PD-L1 [7] = target: T6, human PD-L1 (human, UniProt Q9NZQ7 19-290); assay: flow cytometry, CHO cells stably expressing PD-L1
T6 construct: also called huPD-L1; CD274

[8] = target: T7, human PD-L1 (full-length, expressed on CHO cells) (human, UniProt Q9NZQ7 19-290); assay: flow cytometry, CHO cells expressing huPD-L1, PE anti-human Fc
T7 construct: also called huPD-L1; CD274
T7 sequence (Q9NZQ7 19-290): as above

[9] = target: T8, CD28 (endogenously expressed on Jurkat/IL2 reporter cells) (human, UniProt P10747 19-220); assay: flow cytometry MFI at 33.3 nM relative to WT CD80 ECD-Fc (R&D), Jurkat cells
T8 construct: Endogenous CD28 of Jurkat cells; also called human CD28

[10] = target: T8, CD28 (endogenously expressed on …); assay: flow cytometry, Jurkat/IL2 reporter cells (endogenous CD28), PE anti-human Fc
[11] = target: T7, human PD-L1 (full-length, expressed on …); assay: flow cytometry MFI at 33.3 nM relative to WT CD80 ECD-Fc (R&D), CHO/huPD-L1 cells
[12] = target: T7, human PD-L1 (full-length, expressed on …); assay: flow cytometry, MFI on CHO/huPD-L1 cells over MFI on Jurkat (CD28) cells, 33.3 nM
human CD28 [13] = target: T9, human CD28 (human, UniProt P10747 19-220); assay: flow cytometry, Jurkat/IL2 reporter cells (endogenous CD28), 33.3 nM Fc fusion, PE anti-human Fc
T9 construct: whole, on cells; Jurkat/IL2 reporter cells, which endogenously express CD28

B1: CD80 IgV-Fc S21P/E35D/K37E/D46E/M47I/V68M (Fc fusion, not shown: a dimerising Fc or GST)
chain: VIHVTKEVKEVATLSCGHNVPVEELAQTRIYWQKDKEMVLTMMSGEINIWPEYKNRTIFDITNNLSIMILALRPSDEGTYECVVLKYEKDAFKREHLAEVTLSVKAD
- MFI at 33.3 nM (human CD28 [1]): 540 MFI
- MFI at 33.3 nM (human CTLA-4 [2]): 20600 MFI

B2: CD80 V68M/K89N IgV-Fc (Fc fusion, not shown: small tags and cut ends; a dimerising Fc or GST)
chain: VIHVTKEVKEVATLSCGHNVSVEELAQTRIYWQKEKKMVLTMMSGDMNIWPEYKNRTIFDITNNLSIMILALRPSDEGTYECVVLKYENDAFKREHLAEVTLSVKAD
- MFI at 33.3 nM [3]: 2330 MFI
- MFI at 33.3 nM [4]: 538 MFI

B3: variant CD80 IgV-Fc (inert) H18V/A26N/E35D/M47V/V68M/A71G (Fc fusion)
chain: VIHVTKEVKEVATLSCGVNVSVEELNQTRIYWQKDKKMVLTMMSGDVNIWPEYKNRTIFDITNNLSIMILGLRPSDEGTYECVVLKYEKDAFKREHLAEVTLSVKAD
notes: not shown: inert human IgG1 Fc
- MFI at 33.3 nM (human PD-L1 [5]): 68200 MFI
- MFI at 33.3 nM (human CTLA-4 [6]): 22400 MFI

B4: variant CD80 IgV-Fc (inert) H18R/A26P/E35D/D46N/M47V/V68M/A71G/D90P (Fc fusion)
chain: VIHVTKEVKEVATLSCGRNVSVEELPQTRIYWQKDKKMVLTMMSGNVNIWPEYKNRTIFDITNNLSIMILGLRPSDEGTYECVVLKYEKPAFKREHLAEVTLSVKAD
notes: as for B3
- MFI at 33.3 nM (human PD-L1 [5]): 29300 MFI
- MFI at 33.3 nM (human CTLA-4 [6]): 17300 MFI

B5: CD80 E35D/M47V/N48K IgV-Fc (Fc fusion, not shown: small tags and cut ends; a dimerising Fc or GST)
chain: VIHVTKEVKEVATLSCGHNVSVEELAQTRIYWQKDKKMVLTMMSGDVKIWPEYKNRTIFDITNNLSIVILALRPSDEGTYECVVLKYEKDAFKREHLAEVTLSVKAD
- MFI at 33.3 nM [3]: 47400 MFI
- MFI at 33.3 nM [4]: 4850 MFI

B6: CD80 IgV-Fc V22D/E24D/E35D/M47L/V68M (Fc fusion, not shown: a dimerising Fc or GST)
chain: VIHVTKEVKEVATLSCGHNVSDEDLAQTRIYWQKDKKMVLTMMSGDLNIWPEYKNRTIFDITNNLSIMILALRPSDEGTYECVVLKYEKDAFKREHLAEVTLSVKAD
- MFI at 33.3 nM (human CD28 [1]): 1250 MFI
- MFI at 33.3 nM (human PD-L1 [7]): 15400 MFI

B7: variant CD80 IgV-Fc Q33L/E35D/T41S/M47V (Fc fusion, not shown: a dimerising Fc or GST)
chain: VIHVTKEVKEVATLSCGHNVSVEELAQTRIYWLKDKKMVLSMMSGDVNIWPEYKNRTIFDITNNLSIVILALRPSDEGTYECVVLKYEKDAFKREHLAEVTLSVKAD
- MFI at 33.3 nM [8]: 43800 MFI
- Fold change to WT [9]: 0.04 fold
- MFI at 33.3 nM [10]: 287 MFI
- Fold change to WT [11]: 5.52 fold
- Ratio of PDL1:CD28 [12]: 153 ratio

B8: CD80 N48K/V68M/K89N IgV-Fc (Fc fusion, not shown: small tags and cut ends; a dimerising Fc or GST)
chain: VIHVTKEVKEVATLSCGHNVSVEELAQTRIYWQKEKKMVLTMMSGDMKIWPEYKNRTIFDITNNLSIMILALRPSDEGTYECVVLKYENDAFKREHLAEVTLSVKAD
- MFI at 33.3 nM [3]: 19100 MFI
- MFI at 33.3 nM [4]: 11500 MFI

B9: variant CD80 IgV-Fc (inert) A26P/E35D/M47I/V68M/A71G/D90G (Fc fusion)
chain: VIHVTKEVKEVATLSCGHNVSVEELPQTRIYWQKDKKMVLTMMSGDINIWPEYKNRTIFDITNNLSIMILGLRPSDEGTYECVVLKYEKGAFKREHLAEVTLSVKAD
notes: as for B3
- MFI at 33.3 nM (human CTLA-4 [6]): 19800 MFI
- MFI at 33.3 nM (human CD28 [13]): 8190 MFI

B10: CD80 IgV-Fc V22D/E24D/E35D/M47V/V68M (Fc fusion, not shown: a dimerising Fc or GST)
chain: VIHVTKEVKEVATLSCGHNVSDEDLAQTRIYWQKDKKMVLTMMSGDVNIWPEYKNRTIFDITNNLSIMILALRPSDEGTYECVVLKYEKDAFKREHLAEVTLSVKAD
- MFI at 33.3 nM (human CD28 [1]): 191 MFI
- MFI at 33.3 nM (human CTLA-4 [2]): 16900 MFI

B11: variant CD80 IgV-Fc Q33K/E35D/D46V/L85Q (Fc fusion, not shown: a dimerising Fc or GST)
chain: VIHVTKEVKEVATLSCGHNVSVEELAQTRIYWKKDKKMVLTMMSGVMNIWPEYKNRTIFDITNNLSIVILALRPSDEGTYECVVQKYEKDAFKREHLAEVTLSVKAD
- MFI at 33.3 nM [8]: 26700 MFI
- Fold change to WT [9]: 0.03 fold
- MFI at 33.3 nM [10]: 257 MFI
- Fold change to WT [11]: 3.36 fold
- Ratio of PDL1:CD28 [12]: 104 ratio

B12: variant CD80 IgV-Fc (inert) H18F/A26P/E35D/M47I/V68M/A71G/D90G (Fc fusion)
chain: VIHVTKEVKEVATLSCGFNVSVEELPQTRIYWQKDKKMVLTMMSGDINIWPEYKNRTIFDITNNLSIMILGLRPSDEGTYECVVLKYEKGAFKREHLAEVTLSVKAD
notes: as for B3
- MFI at 33.3 nM (human PD-L1 [5]): 32300 MFI
- MFI at 33.3 nM (human CTLA-4 [6]): 23900 MFI
- MFI at 33.3 nM (human CD28 [13]): 4800 MFI

B13: CD80 E35D/M47V/V68M/K89N IgV-Fc (Fc fusion, not shown: small tags and cut ends; a dimerising Fc or GST)
chain: VIHVTKEVKEVATLSCGHNVSVEELAQTRIYWQKDKKMVLTMMSGDVNIWPEYKNRTIFDITNNLSIMILALRPSDEGTYECVVLKYENDAFKREHLAEVTLSVKAD
- MFI at 33.3 nM [3]: 29500 MFI
- MFI at 33.3 nM [4]: 21800 MFI

B14: CD80 E35D/M47V/V68M IgV-Fc (Fc fusion, not shown: small tags and cut ends; a dimerising Fc or GST)
chain: VIHVTKEVKEVATLSCGHNVSVEELAQTRIYWQKDKKMVLTMMSGDVNIWPEYKNRTIFDITNNLSIMILALRPSDEGTYECVVLKYEKDAFKREHLAEVTLSVKAD
- MFI at 33.3 nM [4]: 16600 MFI

B15: CD80 IgV-Fc T13R/Q33R/E35D/M38I/M47L/V68M/L85M/R94Q (Fc fusion, not shown: a dimerising Fc or GST)
chain: VIHVTKEVKEVARLSCGHNVSVEELAQTRIYWRKDKKIVLTMMSGDLNIWPEYKNRTIFDITNNLSIMILALRPSDEGTYECVVMKYEKDAFKQEHLAEVTLSVKAD
- MFI at 33.3 nM (human CD28 [1]): 15.2 MFI
- MFI at 33.3 nM (human CTLA-4 [2]): 19100 MFI
- MFI at 33.3 nM (human PD-L1 [7]): 20400 MFI

B16: CD80 M47V/N48K/V68M/K89N IgV-Fc (Fc fusion, not shown: small tags and cut ends; a dimerising Fc or GST)
chain: VIHVTKEVKEVATLSCGHNVSVEELAQTRIYWQKEKKMVLTMMSGDVKIWPEYKNRTIFDITNNLSIMILALRPSDEGTYECVVLKYENDAFKREHLAEVTLSVKAD
- MFI at 33.3 nM [4]: 23700 MFI

B17: variant CD80 IgV-Fc (inert) H18Y/A26P/E35D/M47V/V68M/A71G (Fc fusion)
chain: VIHVTKEVKEVATLSCGYNVSVEELPQTRIYWQKDKKMVLTMMSGDVNIWPEYKNRTIFDITNNLSIMILGLRPSDEGTYECVVLKYEKDAFKREHLAEVTLSVKAD
notes: as for B3
- MFI at 33.3 nM (human PD-L1 [5]): 51500 MFI
- MFI at 33.3 nM (human CD28 [13]): 6910 MFI

B18: CD80 IgV-Fc S21P/E35D/K37E/D46E/M47I/V68M/R94L (Fc fusion, not shown: a dimerising Fc or GST)
chain: VIHVTKEVKEVATLSCGHNVPVEELAQTRIYWQKDKEMVLTMMSGEINIWPEYKNRTIFDITNNLSIMILALRPSDEGTYECVVLKYEKDAFKLEHLAEVTLSVKAD
- MFI at 33.3 nM (human CD28 [1]): 284 MFI
- MFI at 33.3 nM (human CTLA-4 [2]): 20100 MFI

B19: CD80 E35D/M47V/N48K/V68M IgV-Fc (Fc fusion, not shown: small tags and cut ends; a dimerising Fc or GST)
chain: VIHVTKEVKEVATLSCGHNVSVEELAQTRIYWQKDKKMVLTMMSGDVKIWPEYKNRTIFDITNNLSIMILALRPSDEGTYECVVLKYEKDAFKREHLAEVTLSVKAD
- MFI at 33.3 nM [3]: 32900 MFI
- MFI at 33.3 nM [4]: 23500 MFI

B20: variant CD80 IgV-Fc (inert) H18V/A26P/E35D/M47V/V68L/A71G (Fc fusion)
chain: VIHVTKEVKEVATLSCGVNVSVEELPQTRIYWQKDKKMVLTMMSGDVNIWPEYKNRTIFDITNNLSILILGLRPSDEGTYECVVLKYEKDAFKREHLAEVTLSVKAD
notes: as for B3
- MFI at 33.3 nM (human PD-L1 [5]): 55400 MFI
- MFI at 33.3 nM (human CTLA-4 [6]): 13700 MFI

B21: variant CD80 IgV-Fc Q33L/E35D/M47I (Fc fusion, not shown: a dimerising Fc or GST)
chain: VIHVTKEVKEVATLSCGHNVSVEELAQTRIYWLKDKKMVLTMMSGDINIWPEYKNRTIFDITNNLSIVILALRPSDEGTYECVVLKYEKDAFKREHLAEVTLSVKAD
- MFI at 33.3 nM [8]: 37400 MFI
- Fold change to WT [9]: 0.04 fold
- MFI at 33.3 nM [10]: 282 MFI
- Fold change to WT [11]: 4.7 fold
- Ratio of PDL1:CD28 [12]: 132 ratio

B22: CD80 E35D/V68M/K89N IgV-Fc (Fc fusion, not shown: small tags and cut ends; a dimerising Fc or GST)
chain: VIHVTKEVKEVATLSCGHNVSVEELAQTRIYWQKDKKMVLTMMSGDMNIWPEYKNRTIFDITNNLSIMILALRPSDEGTYECVVLKYENDAFKREHLAEVTLSVKAD
- MFI at 33.3 nM [3]: 24800 MFI
